Km data for one protein are collected here from paper PMC7054389, “Genome-Wide Analysis of the Glucose-6-Phosphate Dehydrogenase Family in Soybean and Functional Identification of GmG6PDH2 Involvement in Salt Stress” (Frontiers in Plant Science, 2020).

Substrate in the series: NC(=O)c1ccc[n+]([C@@H]2O[C@H](COP(=O)(O)OP(=O)(O)OC[C@H]3O[C@@H](n4cnc5c(N)ncnc54)[C@H](OP(=O)(O)O)[C@@H]3O)[C@@H](O)[C@H]2O)c1
Nature of the series: NADP+ reduction, Eadie-Hofstee plot, crude E. coli extract. It counts as biochemical, Glycine max. The note with it: co-substrate G6P, assay as for plant extracts: 50 mM Hepes-Tris pH 7.8, 3.3 mM MgCl2.

B1: GmG6PDH2 (Glycine max) (protein)
chain: MGTSEWHIERRSSFGTESPLAREAGNVPETGSLSIVVLGASGDLAKKKTFPALFHLYRQGFLPADEVHIFGYARTKISDDELRNRLRGYLVPNKGASPQLLEDVEKFLQLIKYVSGSYDSEDGFRLLDKEISEHEYLKKSVEGLSRRLFYLALPPSVYPSVCKMIKTCCMNKSDLGGWTRVVVEKPFGKDLESAEELSTEIGKLFEEPQIYRIDHYLGKELVQNLLVLRFANRFFLPLWNRDNIDNVQIVFREDFGTDGRGGYFDQYGIIRDIIQNHLLQVLCLVAMEKPVSLRPEHIRDEKVKVLESVLPIRDDEVVLGQYEGYKDDPTVPDKSNTPTFATVILRIHNERWEGVPFILKAGKALNSRKAEIRVQFKDVPGDIFKCKKQGRNEFVIRLQPLEAMYMKLTVKQPGLEMSTVQSELDLSYGQRYQGVTIPEAYERLILDTIKGDQQHFVRRDELKASWQIFTPLLHRIDEGEFKPLPYKPGSRGPAEADQLLEKAGYVQTHGYIWIPPTL
notes: full-length CDS in pET32a(+), His-tagged, E. coli Rosetta; crude lysate supernatant, not purified
What is called Km is the concentration of substrate that gives half-maximal velocity. Consider B1, for which the Michaelis constant (Km) was 33 µM.
